Measurements taken from patent publication US11524082B2, “FBSA-based therapeutic and radioimaging conjugates targeting carbonic anhydrase positive cancers” (priority 2017, dated 2022).
Entries after “also recorded” stand apart in the source; their conditions may differ.

Columns and labels:
HT-29 cells = format: cell-based; details: 2 hr incubation, then 66 hr in fresh medium, FIG. 8, read-out: IC50 (3H-thymidine incorporation)
Protocol: General Procedure for In Vitro Cytotoxicity Determination by ^3H-Thymidine Uptake Assays
HT-29 cells were seeded on amine-coated 24-well plates and allowed to form monolayers. The spent medium in each well was replaced with fresh medium (0.5 mL) containing various concentrations of Conjugate 12. After incubating for 2 hr at 37° C., cells were rinsed three times with fresh medium and then incubated an additional 66 hr at 37° C. in fresh medium. Spent medium in each well was again replaced with fresh medium (0.5 mL) containing ^3H-thymidine (1 μCi/ml) and the cells were incubated for an additional 4 hr. After washing the cells three times with medium, they were dissolved in 0.5 mL of 0.25 M NaOH. Thymidine incorporation was then determined by counting cell-associated radioactivity using a scintillation counter (PACKARD, PACKARD INSTRUMENT COMPANY). The IC50 value was derived from a plot of the percent of ^3H-thymidine incorporation versus log concentration using Graph Pad Prism 4 and TABLECURVE 2D software.

HT-29 xenografts = assay: In vivo efficacy of tubulysin conjugates in HT-29 xenograft tumors; set-up: species or system mice
Protocol: Athymic nu/nu mice were purchased from Harlan Laboratories (ENVIGO), housed in a sterile environment on a standard 12 hour light-dark cycle and maintained on normal rodent chow. All animal procedures were approved by the PURDUE Animal Care and Use Committee in accordance with National Institutes of Health guidelines.
In Vivo Efficacy of Tubulysin Conjugate 12 in HT29 Xenograft Tumors.
Cells, HT-29 cells (4.25×10^6) were subcutaneously injected into the shoulders of 5-6 week old female nu/nu mice. Tumors were measured in two perpendicular directions thrice weekly with vernier calipers and their volumes were calculated as 0.5×L×W^2, where L is the longest axis (in millimeters), and W is the axis perpendicular to L (in millimeters). Dosing of Conjugate 12 was initiated when the subcutaneous tumors reached ˜100-275 mm^3 in volume. Dosing solutions were prepared in saline and filtered through a 0.22 μm filter. Solutions were administered via tail vein injection or intraperitoneally. […] Injections were given every two days and the mice were weighed concurrently. […]

For `CCCC(=O)OCN(C(=O)[C@@H](NC(=O)C1CCCCN1C)[C@@H](C)CC)[C@H](C[C@@H](OC(C)=O)c1nc(C(=O)N[C@@H](Cc2ccc(O)cc2)C[C@H](C)C(=O)NNC(=O)OCCSSC[C@H](NC(=O)[C@H](CC(=O)O)NC(=O)[C@@H](N)CNC(=O)CCOCCOCCNC(=O)CCS(=O)(=O)c2c(F)c(F)c(S(N)(=O)=O)c(F)c2NC2CCCCCCC2)C(=O)O)cs1)C(C)C` (some centres unmarked) [Conjugate 12], the IC50 (HT-29 cells) was 5.04 nM, the gross toxicity (HT-29 xenografts; HT-29 xenograft mice, 2 μmol/kg per injection) was “no gross toxicity was observed” and the loss of weight (HT-29 xenografts; HT-29 xenograft mice, 2 μmol/kg per injection, FIG. 12) was “less than 10%”. The body mass loss (HT-29 xenografts; HT-29 xenograft mice, 2 umol/kg, at 6 days into the treatment, FIG. 12) was “not more than 10%” and the tumor response (HT-29 xenografts; HT-29 xenografts, 2 μmol/kg per injection, every two days (TIW), n=3, FIG. 11) was “tumors shrinking; also recorded: halted tumor growth and the xenograft is in the process of shrinking”.
